Experiments:
telomerase = telomerase (Homo sapiens, UniProt O14746); assay: Telomerase activity (TRAP) of 293T cell lines treated with cisplatin; type: cell-based; set-up: endogenous in cells; host or cells: 293T cells stably transfected with empty pLNCX or pLNCX 24.2; details: pre-treated 0.5 μg/ml 3 days, then 3 μg/ml cisplatin for 7 days
Procedure: FIG. 5.—Telomerase activity of the 293T cell lines: pLNCX and 24.2 following treatment with cisplatin. The cells were seeded in 60-mm plates, pre-treated with 0.5 μg/ml of cisplatin for 3 days and subsequently treated with cisplatin at a dose of 3 μg/ml […]. The telomerase activity was measured by means of the Intergen TRAPeze assay. The experiment was performed 3 times, with similar results.
To this end, an assay of telomerase activity was performed using the TRAP method with the pLNCX and pLNCX 24.2 cell lines (FIG. 5), pre-treating them for 3 days with 0.5 μg/ml of cisplatin; subsequently, they were treated with 3 μg/ml of cisplatin for 3 and 7 days. […]
Telomerase activity assay based on the TRAP method Wright et al., 1995). The telomerase activity was measured using the TRAPeze telomerase detection kit (Intergen) in accordance with the instruction manual. The protein concentration of each extract was quantified by means of the Bradford method using the BIORAD reagent and after performing a PCR in accordance with the manual instructions; polyacrylamide gel electrophoresis was performed with the reaction products under non-denaturing conditions and, subsequently, it was stained with Ethidium bromide for 30 minutes.

hTR = assay: RT-PCR of hTR in VA13 cells; type: cell-based; details: transient transfection
Procedure: FIG. 10.—Telomerase activity and expression levels of hTERT and hTR in the cells of patients with dyskeratosis congenita and in VA13 cells transiently transfected with the 24.2 plasmid or the pLNCX empty vector. A) Telomerase activity measured by means of the TRAP assay in the cells of patients with dyskeratosis congenita (DC-1, DC-2 and DC-3) and in the carrier parent (DC-C) following electroporation of 45 μg of the pLNCX empty plasmid (−) or the pLNCX 24.2 vector (+) by 15 million cells. B) RT-PCR of the RNA from cells of one of the patients with dyskeratosis congenita, DC3 transfected with the empty vector and DC3 transfected with the 24.2 plasmid, using oligos specific for hTERT and hTR. As a starting RNA control, oligos for the amplification of GAPDH were used. C) Telomerase activity in VA13 cells. The cells were transiently transfected with 16 μg of the control pLNCX empty vector, expressing DKC or the GSE 24.2 peptide per million cells. 24 hours later, the telomerase activity was analysed as described above, using dilutions of the protein extracts from each transfection. D) The expression levels of hTERT and hTR in VA13 cells transfected with 16 μg of the different construct per million cells. RNA levels were detected as described above. GAPDH was used as a control. […] After 24 h of transfection, the luciferase activity was analyzed as described above. […]

telomerase, sequence (O14746 whole entry): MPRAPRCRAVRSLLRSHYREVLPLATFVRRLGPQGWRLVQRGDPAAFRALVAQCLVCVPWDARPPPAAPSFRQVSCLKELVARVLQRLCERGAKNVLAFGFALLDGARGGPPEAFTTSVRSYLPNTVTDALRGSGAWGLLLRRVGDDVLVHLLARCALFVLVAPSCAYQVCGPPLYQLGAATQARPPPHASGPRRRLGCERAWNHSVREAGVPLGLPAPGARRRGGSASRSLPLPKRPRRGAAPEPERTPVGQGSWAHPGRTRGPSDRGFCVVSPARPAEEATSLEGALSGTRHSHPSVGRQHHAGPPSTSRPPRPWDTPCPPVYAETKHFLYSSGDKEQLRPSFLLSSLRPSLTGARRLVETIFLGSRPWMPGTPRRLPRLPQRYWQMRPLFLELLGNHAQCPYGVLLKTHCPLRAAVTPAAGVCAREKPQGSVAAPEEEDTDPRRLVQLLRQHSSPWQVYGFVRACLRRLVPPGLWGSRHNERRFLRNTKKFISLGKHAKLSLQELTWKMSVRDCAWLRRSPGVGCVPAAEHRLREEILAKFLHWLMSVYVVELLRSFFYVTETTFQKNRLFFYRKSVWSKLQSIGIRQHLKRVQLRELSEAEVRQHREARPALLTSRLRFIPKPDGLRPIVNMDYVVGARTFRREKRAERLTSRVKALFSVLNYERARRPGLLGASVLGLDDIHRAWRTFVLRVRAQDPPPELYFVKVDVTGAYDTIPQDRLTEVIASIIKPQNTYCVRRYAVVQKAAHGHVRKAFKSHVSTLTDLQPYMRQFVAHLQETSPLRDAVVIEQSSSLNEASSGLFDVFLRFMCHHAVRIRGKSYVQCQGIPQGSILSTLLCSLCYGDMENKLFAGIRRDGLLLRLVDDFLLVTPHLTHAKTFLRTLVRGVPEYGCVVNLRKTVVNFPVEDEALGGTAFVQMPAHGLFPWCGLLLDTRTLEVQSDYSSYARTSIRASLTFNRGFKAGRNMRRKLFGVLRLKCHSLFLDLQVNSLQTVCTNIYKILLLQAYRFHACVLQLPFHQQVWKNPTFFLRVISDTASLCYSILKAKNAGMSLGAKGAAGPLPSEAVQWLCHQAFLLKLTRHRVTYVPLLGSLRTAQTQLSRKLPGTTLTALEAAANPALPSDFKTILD
telomerase, sequence (O60832 2-514 partner limits assumed): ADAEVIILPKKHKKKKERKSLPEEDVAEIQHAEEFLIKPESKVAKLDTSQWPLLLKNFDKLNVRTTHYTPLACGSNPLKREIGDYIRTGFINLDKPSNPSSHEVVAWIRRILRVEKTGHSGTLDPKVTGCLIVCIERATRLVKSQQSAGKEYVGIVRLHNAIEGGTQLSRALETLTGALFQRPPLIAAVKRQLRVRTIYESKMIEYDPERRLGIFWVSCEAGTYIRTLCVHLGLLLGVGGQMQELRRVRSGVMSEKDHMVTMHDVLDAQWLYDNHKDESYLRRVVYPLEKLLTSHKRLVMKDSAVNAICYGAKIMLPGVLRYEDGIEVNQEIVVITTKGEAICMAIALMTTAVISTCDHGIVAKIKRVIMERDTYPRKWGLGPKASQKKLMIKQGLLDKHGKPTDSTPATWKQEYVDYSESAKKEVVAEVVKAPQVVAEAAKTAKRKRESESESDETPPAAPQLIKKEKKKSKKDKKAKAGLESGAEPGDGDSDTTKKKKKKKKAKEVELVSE
telomerase, sequence (Q9NPE3 whole entry partner): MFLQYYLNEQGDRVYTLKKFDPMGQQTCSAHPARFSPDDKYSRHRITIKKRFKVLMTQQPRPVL
telomerase, sequence (Q9NX24 whole entry partner): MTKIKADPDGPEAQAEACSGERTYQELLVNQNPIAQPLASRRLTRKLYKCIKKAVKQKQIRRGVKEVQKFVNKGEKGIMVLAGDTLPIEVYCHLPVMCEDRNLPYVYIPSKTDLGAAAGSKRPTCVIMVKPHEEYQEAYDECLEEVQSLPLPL
telomerase, sequence (Q9NY12 whole entry partner): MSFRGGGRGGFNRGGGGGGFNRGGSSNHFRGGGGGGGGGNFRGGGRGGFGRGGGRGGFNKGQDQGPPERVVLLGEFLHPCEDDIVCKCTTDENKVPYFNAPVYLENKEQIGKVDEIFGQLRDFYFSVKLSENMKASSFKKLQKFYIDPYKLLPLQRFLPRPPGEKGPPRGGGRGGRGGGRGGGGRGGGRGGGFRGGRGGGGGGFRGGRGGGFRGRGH
telomerase, sequence (Q9BUR4 whole entry partner): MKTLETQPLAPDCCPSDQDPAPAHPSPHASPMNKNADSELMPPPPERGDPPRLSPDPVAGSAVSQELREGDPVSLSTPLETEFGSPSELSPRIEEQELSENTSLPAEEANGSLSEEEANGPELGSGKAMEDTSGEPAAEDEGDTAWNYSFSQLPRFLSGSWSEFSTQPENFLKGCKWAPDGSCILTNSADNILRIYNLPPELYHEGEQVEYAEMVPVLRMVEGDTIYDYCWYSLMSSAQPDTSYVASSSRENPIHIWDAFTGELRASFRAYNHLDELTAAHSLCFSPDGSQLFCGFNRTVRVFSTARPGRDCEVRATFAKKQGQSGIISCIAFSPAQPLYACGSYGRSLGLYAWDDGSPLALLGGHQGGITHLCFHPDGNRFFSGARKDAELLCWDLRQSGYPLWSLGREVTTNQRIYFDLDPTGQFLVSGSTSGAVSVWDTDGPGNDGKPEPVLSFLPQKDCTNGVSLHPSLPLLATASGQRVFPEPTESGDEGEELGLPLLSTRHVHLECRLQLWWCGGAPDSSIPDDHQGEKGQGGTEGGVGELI

B1: GSE 24.2: 165-pb cDNA fragment (nucleotides 268 to 433) of human dyskerin, SEQ ID NO1, encoding peptide SEQ ID NO2, expressed from pLNCX plasmid (nucleic acid, listed as Homo sapiens)
DNA: GGTTTCATTAATCTTGACAAGCCCTCTAACCCCTCTTCCCATGAGGTGGTAGCCTGGATTCGACGGATACTTCGGGTGGAGAAGACAGGGCACAGTGGTACTCTGGATCCCAAGGTGACTGGTTGTTTAATCGTGTGCATAGAACGAGCCACTCGCTTGGTGAAG
modifications: expressed from pLNCX plasmid; CDS (1)..(165) Sequence GSE 24.2
In the case of B1, the “inhibition of telomerase activity by cisplatin in 24.2 cell line” value (telomerase) is reported as “no inhibition was observed” and the “expression of hTR RNA in VA13 cells” value (hTR) is reported as “capable of recovering”.

Reference: patent US9587002B2, “Sequence of nucleotides and peptides GSE 24.2 of dyskerin, which can induce telomerase activity, method for obtaining same, therapeutic compositions and applications thereof” (CONSEJO SUPERIOR DE INVESTIGACIONES CIENTIFICAS, priority 2005, dated 2017)
